# Measured values published in patent US9493781B2, “Synthetic brassica-derived chloroplast transit peptides” (DOW AGROSCIENCES LLC, priority 2012, dated 2016).
# What was measured:
# Arabidopsis [1] = experiment: dgt-28, dgt-32, dgt-33, dgt-3, dgt-7 transformed Arabidopsis (T1, T2, T3) response to postemergence glyphosate, % visual injury; type: in vivo, Arabidopsis thaliana; details: for % Injury Ave / % Injury Range (%) / No. plants with 20-40% injury / No. plants with <20% injury / No. plants with >40% injury: 14 days after application
# Description: Transgenic T1 Arabidopsis plants containing the dgt-28 transgene were sprayed with differing rates of glyphosate. Elevated rates were applied in this study to determine the relative levels of resistance (105, 420, 1,680 or 3,360 g ae/ha). A typical 1× usage rate of glyphosate that will control non-transformed Arabidopsis is 420 g ae/ha. […] The T1 Arabidopsis plants that were used in this study were variable copy number for the dgt-28 transgene. The low copy dgt-28 T1 Arabidopsis plants were self-pollinated and used to produce T2 plants.
# Results of Glyphosate Selection of Transformed dgt-28 Arabidopsis Plants. The Arabidopsis T1 transformants were first selected from the background of untransformed seed using a glufosinate selection scheme. Three flats or 30,000 seed were analyzed for each T1 construct. The T1 plants selected above were molecularly characterized and representative plants with variable copy number were subsequently transplanted to individual pots and sprayed with various rates of commercial glyphosate as previously described. The response of these plants is presented in terms of % visual injury 2 weeks after treatment (WAT). […] An arithmetic mean and standard deviation is presented for each construct used for Arabidopsis transformation. The range in individual response is also indicated in the last column for each rate and transformation. Wild-type, non-transformed Arabidopsis (c.v. Columbia) served as a glyphosate sensitive control.
# T2Arabidopsis Data. The second generation plants (T2) of selected T1 Arabidopsis events which contained low copy numbers of the dgt-28 transgene were further characterized for glyphosate tolerance. Glyphosate was applied as described previously. The response of the plants is presented in terms of % visual injury 2 weeks after treatment (WAT). […] An arithmetic mean and standard deviation are presented for each construct used for Arabidopsis transformation. The range in individual response is also indicated in the last column for each rate and transformation. Wild-type, non-transformed Arabidopsis (cv. Columbia) served as a glyphosate sensitive control. In the T2 generation hemizygous and homozygous plants were available for testing for each event and therefore were included for each rate of glyphosate tested. Hemizygous plants contain two different alleles at a locus as compared to homozygous plants which contain the same two alleles at a locus. Variability of response to glyphosate is expected in the T2 generation as a result of the difference in gene dosage for hemizygous as compared to homozygous plants. The variability in response to glyphosate is reflected in the standard deviation and range of response.
# T3 Arabidopsis Data. The third generation plants (T3) of selected T2 Arabidopsis events which contained low copy numbers of the dgt-28 transgene were further characterized for glyphosate tolerance. […] Glyphosate was applied as described previously. The response of the plants is presented in terms of % visual injury 2 weeks after treatment (WAT). […] An arithmetic mean and standard deviation are presented for each construct used for Arabidopsis transformation. The range in individual response is also indicated in the last column for each rate and transformation. Wild-type, non-transformed Arabidopsis (cv. Columbia) served as a glyphosate-sensitive control.
# Arabidopsis [2] = experiment: Heritability progeny test of T1 families (T2 plants) with glufosinate, Arabidopsis; type: in vivo, Arabidopsis thaliana; details: progeny test of 100 T2 plants, glufosinate 200 g ae/ha
# Description: Heritability. Confirmed transgenic T1 Arabidopsis events were self-pollinated to produce T2 seed. These seed were progeny tested by applying Ignite™ herbicide containing glufosinate (200 g ae/ha) to 100 random T2 siblings. […] The T1 families (T2 plants) segregated in the anticipated 3 Resistant: 1 Sensitive model for a dominantly inherited single locus with Mendelian inheritance as determined by Chi square analysis (P>0.05). […] Seed were collected from 5 to 15 T2 individuals (T3 seed). Twenty-five T3 siblings from each of 3-4 randomly-selected T2 families were progeny tested as previously described.
# [3] = Table 8, T1 Arabidopsis, 105 g ae/ha glyphosate
# [4] = Table 8, T1 Arabidopsis, 420 g ae/ha glyphosate
# [5] = Table 8, T1 Arabidopsis, 1680 g ae/ha glyphosate
# [6] = Table 8, T1 Arabidopsis, 3360 g ae/ha glyphosate
# [7] = Table 10, T1 Arabidopsis, 1,680 g ae/ha glyphosate
# [8] = Table 12, T2 Arabidopsis, 1 copy, 420 g ae/ha glyphosate
# [9] = Table 12, T2 Arabidopsis, 1 copy, 840 g ae/ha glyphosate
# [10] = Table 12, T2 Arabidopsis, 1 copy, 1680 g ae/ha glyphosate
# [11] = Table 12, T2 Arabidopsis, 1 copy, 3360 g ae/ha glyphosate
molecule,measurement,setting,value
"pDAB105530: TraP5 v2 - dgt-28 v5: binary construct TraP5 v2: dgt-28 v5 (SEQ ID NO:33) (nucleic acid, In-frame fusion of dgt-28 v5 and TraP5 v2) DNA: ATGCAACTCCTGAATCAGAGGCAAGCCCTGCGTCTTGGTCGTTCATCTGCTTCAAAGAACCAGCAAGTTGCTCCACTGGCCTCTAGGCCTGCTTCTTCCTTGAGCGTCAGCGCATCCAGCGTCGCACCTGCACCTGCTTGCTCAGCTCCTGCTGGAGCTGGAAGGCGTGCTGTTGTCGTGAGAGCAGCAAGAGGGATGCCAGCCTTGTCTTTACCTGGATCAAAGAGTATCACAGCTAGGGCACTCTTTCTTGCTGCTGCTGCTGATGGGGTTACTACTTTGGTGAGGCCATTGAGAAGTGACGACACAGAAGGATTCGCTGAGGGGTTAGTTCGTTTAGGCTATCGTGTAGGGAGGACACCCGATACTTGGCAAGTCGATGGCAGACCACAAGGACCAGCAGTGGCTGAGGCTGACGTCTACTGTAGAGACGGAGCAACCACCGCTAGATTCTTGCCAACCTTAGCAGCTGCTGGTCACGGAACATACAGATTTGATGCTTCACCACAGATGAGGAGACGTCCTCTTTTGCCCTTAAGCAGAGCCTTGAGGGATTTGGGTGTCGATCTTAGACACGAAGAAGCTGAAGGTCATCACCCTCTGACTGTCCGTGCTGCTGGGGTTGAAGGAGGAGAGGTTACTTTGGATGCTGGTCAGTCAAGTCAGTATCTCACTGCCTTGTTGCTCCTTGGTCCCCTTACAAGACAAGGACTGAGGATAAGGGTTACTGATTTGGTGTCAGCACCATACGTGGAGATTACGCTTGCAATGATGAGGGCTTTCGGAGTTGAAGTGGCAAGGGAGGGAGATGTGTTCGTTGTTCCACCTGGTGGATATCGTGCAACTACGTATGCTATAGAACCCGACGCAAGTACTGCTTCTTACTTCTTCGCAGCTGCTGCTTTGACTCCTGGAGCTGAAGTGACTGTACCTGGGTTAGGCACGGGAGCACTTCAAGGAGATTTGGGATTTGTAGATGTCTTAAGGAGAATGGGAGCCGAGGTGTCCGTAGGAGCTGATGCAACCACTGTTAGAGGAACTGGTGAATTGCGTGGCCTTACAGCCAACATGAGAGACATAAGTGATACGATGCCGACCCTCGCTGCAATAGCACCCTTTGCTAGTGCTCCAGTTAGAATCGAGGATGTTGCCAACACTCGTGTCAAAGAATGTGACAGACTTGAGGCTTGTGCAGAGAACCTTAGGAGGTTGGGAGTAAGGGTTGCAACGGGTCCGGACTGGATTGAGATACACCCTGGTCCAGCTACTGGTGCTCAAGTCACAAGCTATGGTGATCACAGAATTGTGATGTCATTTGCAGTGACTGGACTTCGTGTGCCTGGGATCAGCTTCGACGACCCTGGCTGTGTTCGTAAGACTTTTCCTGGGTTTCACGAGGCTTTCGCAGAATTGAGGCGTGGCATTGGGAGCTGA",Glyphosate tolerance,"Arabidopsis [1]; T2 Arabidopsis, versus dgt-28 constructs with other TraP transit peptides",did not provide robust tolerance to glyphosate
same,% Injury Ave,Arabidopsis [1]; [3],39.3%
same,% Injury Range (%),Arabidopsis [1]; [3],8-100%
same,No. plants with 20-40% injury,Arabidopsis [1]; [3],2
same,No. plants with <20% injury,Arabidopsis [1]; [3],2
same,No. plants with >40% injury,Arabidopsis [1]; [3],2
same,% Injury Ave,Arabidopsis [1]; [4],33.0%
same,% Injury Range (%),Arabidopsis [1]; [4],8-85%
same,No. plants with 20-40% injury,Arabidopsis [1]; [4],4
same,No. plants with <20% injury,Arabidopsis [1]; [4],1
same,No. plants with >40% injury,Arabidopsis [1]; [4],1
same,% Injury Ave,Arabidopsis [1]; [5],47.5%
same,% Injury Range (%),Arabidopsis [1]; [5],25-85%
same,No. plants with 20-40% injury,Arabidopsis [1]; [5],4
same,No. plants with <20% injury,Arabidopsis [1]; [5],0
same,No. plants with >40% injury,Arabidopsis [1]; [5],2
same,% Injury Ave,Arabidopsis [1]; [6],76.7%
same,% Injury Range (%),Arabidopsis [1]; [6],50-85%
same,No. plants with 20-40% injury,Arabidopsis [1]; [6],0
same,No. plants with <20% injury,Arabidopsis [1]; [6],0
same,No. plants with >40% injury,Arabidopsis [1]; [6],6
same,% Injury Ave,Arabidopsis [1]; [7],47.5%
same,% Injury Range (%),Arabidopsis [1]; [7],25-85%
same,No. plants with 20-40% injury,Arabidopsis [1]; [7],4
same,No. plants with <20% injury,Arabidopsis [1]; [7],0
same,No. plants with >40% injury,Arabidopsis [1]; [7],2
same,% Injury Ave,Arabidopsis [1]; [8],75.0%
same,% Injury Range (%),Arabidopsis [1]; [8],50-90%
same,No. plants with 20-40% injury,Arabidopsis [1]; [8],0
same,No. plants with <20% injury,Arabidopsis [1]; [8],0
same,No. plants with >40% injury,Arabidopsis [1]; [8],4
same,% Injury Ave,Arabidopsis [1]; [9],80.0%
same,% Injury Range (%),Arabidopsis [1]; [9],50-90%
same,No. plants with 20-40% injury,Arabidopsis [1]; [9],0
same,No. plants with <20% injury,Arabidopsis [1]; [9],0
same,No. plants with >40% injury,Arabidopsis [1]; [9],4
same,% Injury Ave,Arabidopsis [1]; [10],75.0%
same,% Injury Range (%),Arabidopsis [1]; [10],60-85%
same,No. plants with 20-40% injury,Arabidopsis [1]; [10],0
same,No. plants with <20% injury,Arabidopsis [1]; [10],0
same,No. plants with >40% injury,Arabidopsis [1]; [10],4
same,% Injury Ave,Arabidopsis [1]; [11],76.3%
same,% Injury Range (%),Arabidopsis [1]; [11],70-80%
same,No. plants with 20-40% injury,Arabidopsis [1]; [11],0
same,No. plants with <20% injury,Arabidopsis [1]; [11],0
same,No. plants with >40% injury,Arabidopsis [1]; [11],4
same,T1 Families Tested Segregating at 1 Locus (%),Arabidopsis [2],100%
